Test results: patent US20210221867A1 (Novo Nordisk, published 2021)
Positions of bridges follow the written chain, without caps; N, C: chain ends. Non-standard residues stand in square brackets, D forms with d. dPhe(4-F) = N[C@H](Cc1ccc(F)cc1)C(=O)O; Nle = CCCC[C@H](N)C(=O)O; Thz = O=C(O)[C@@H]1CSCN1; Aib = CC(C)(N)C(=O)O

B1: Ac-Arg-c[Cys-Pro-His-D-Phe-His-Trp-Cys]-Pro-Pro-D-Arg-Glu-Nle-Arg-NH2 (peptide)
peptide: Ac-RCPH[dF]HWCPP[dR]E[Nle]R-NH2
modifications: disulfide 2-8
SMILES: CCCC[C@H](NC(=O)[C@H](CCC(=O)O)NC(=O)[C@@H](CCCNC(=N)N)NC(=O)[C@@H]1CCCN1C(=O)[C@@H]1CCCN1C(=O)[C@@H]1CSSC[C@H](NC(=O)[C@H](CCCNC(=N)N)NC(C)=O)C(=O)N2CCC[C@H]2C(=O)N[C@@H](Cc2c[nH]cn2)C(=O)N[C@H](Cc2ccccc2)C(=O)N[C@@H](Cc2c[nH]cn2)C(=O)N[C@@H](Cc2c[nH]c3ccccc23)C(=O)N1)C(=O)N[C@@H](CCCNC(=N)N)C(N)=O
notes: Synthetic cyclic peptide; also called Chem. 8
B2: Ac-c[Cys-Aib-His-D-Phe-His-Trp-Cys]-Pro-Pro-D-Arg-Glu-Nle-D-Arg-D-Arg-NH2 (peptide)
peptide: Ac-C[Aib]H[dF]HWCPP[dR]E[Nle][dR][dR]-NH2
modifications: disulfide 1-7
SMILES: CCCC[C@H](NC(=O)[C@H](CCC(=O)O)NC(=O)[C@@H](CCCNC(=N)N)NC(=O)[C@@H]1CCCN1C(=O)[C@@H]1CCCN1C(=O)[C@@H]1CSSC[C@H](NC(C)=O)C(=O)NC(C)(C)C(=O)N[C@@H](Cc2c[nH]cn2)C(=O)N[C@H](Cc2ccccc2)C(=O)N[C@@H](Cc2c[nH]cn2)C(=O)N[C@@H](Cc2c[nH]c3ccccc23)C(=O)N1)C(=O)N[C@H](CCCNC(=N)N)C(=O)N[C@H](CCCNC(=N)N)C(N)=O
notes: Synthetic cyclic peptide; also called Chem. 13
B3: Ac-Arg-c[Cys-Pro-His-D-Phe-His-Trp-Cys]-Pro-Pro-D-Arg-Glu-Nle-NH2 (peptide)
peptide: Ac-RCPH[dF]HWCPP[dR]E[Nle]-NH2
modifications: disulfide 2-8
SMILES: CCCC[C@H](NC(=O)[C@H](CCC(=O)O)NC(=O)[C@@H](CCCNC(=N)N)NC(=O)[C@@H]1CCCN1C(=O)[C@@H]1CCCN1C(=O)[C@@H]1CSSC[C@H](NC(=O)[C@H](CCCNC(=N)N)NC(C)=O)C(=O)N2CCC[C@H]2C(=O)N[C@@H](Cc2c[nH]cn2)C(=O)N[C@H](Cc2ccccc2)C(=O)N[C@@H](Cc2c[nH]cn2)C(=O)N[C@@H](Cc2c[nH]c3ccccc23)C(=O)N1)C(N)=O
notes: Synthetic cyclic peptide; also called Chem. 1
B4: Ac-c[Cys-THAZ-His-D-Phe-His-Trp-Cys]-Pro-Pro-D-Arg-Glu-Nle-D-Arg-D-Arg-NH2 (peptide)
peptide: Ac-C[Thz]H[dF]HWCPP[dR]E[Nle][dR][dR]-NH2
modifications: disulfide 1-7
SMILES: CCCC[C@H](NC(=O)[C@H](CCC(=O)O)NC(=O)[C@@H](CCCNC(=N)N)NC(=O)[C@@H]1CCCN1C(=O)[C@@H]1CCCN1C(=O)[C@@H]1CSSC[C@H](NC(C)=O)C(=O)N2CSC[C@H]2C(=O)N[C@@H](Cc2c[nH]cn2)C(=O)N[C@H](Cc2ccccc2)C(=O)N[C@@H](Cc2c[nH]cn2)C(=O)N[C@@H](Cc2c[nH]c3ccccc23)C(=O)N1)C(=O)N[C@H](CCCNC(=N)N)C(=O)N[C@H](CCCNC(=N)N)C(N)=O
notes: Synthetic cyclic peptide; also called Chem. 12
B5: Ac-D-Arg-c[Cys-Pro-His-D-Phe-His-Trp-Cys]-Pro-Pro-D-Arg-Glu-Nle-NH2 (peptide)
peptide: Ac-[dR]CPH[dF]HWCPP[dR]E[Nle]-NH2
modifications: disulfide 2-8
SMILES: CCCC[C@H](NC(=O)[C@H](CCC(=O)O)NC(=O)[C@@H](CCCNC(=N)N)NC(=O)[C@@H]1CCCN1C(=O)[C@@H]1CCCN1C(=O)[C@@H]1CSSC[C@H](NC(=O)[C@@H](CCCNC(=N)N)NC(C)=O)C(=O)N2CCC[C@H]2C(=O)N[C@@H](Cc2c[nH]cn2)C(=O)N[C@H](Cc2ccccc2)C(=O)N[C@@H](Cc2c[nH]cn2)C(=O)N[C@@H](Cc2c[nH]c3ccccc23)C(=O)N1)C(N)=O
notes: Synthetic cyclic peptide; also called Chem. 7
B6: Ac-c[Cys-THAZ-His-D-F-Phe-His-Trp-Cys]-Pro-Pro-D-Arg-Glu-Nle-Arg-Arg-NH2 (peptide)
peptide: Ac-C[Thz]H[dPhe(4-F)]HWCPP[dR]E[Nle]RR-NH2
modifications: disulfide 1-7
SMILES: CCCC[C@H](NC(=O)[C@H](CCC(=O)O)NC(=O)[C@@H](CCCNC(=N)N)NC(=O)[C@@H]1CCCN1C(=O)[C@@H]1CCCN1C(=O)[C@@H]1CSSC[C@H](NC(C)=O)C(=O)N2CSC[C@H]2C(=O)N[C@@H](Cc2c[nH]cn2)C(=O)N[C@H](Cc2ccc(F)cc2)C(=O)N[C@@H](Cc2c[nH]cn2)C(=O)N[C@@H](Cc2c[nH]c3ccccc23)C(=O)N1)C(=O)N[C@@H](CCCNC(=N)N)C(=O)N[C@@H](CCCNC(=N)N)C(N)=O
notes: Synthetic cyclic peptide; also called Chem. 17

Legend:
[1] = molecular target: T1, human MC1 receptor (human, UniProt Q01726 1-317); experiment: cell-based or functional assay
T1 sequence (Q01726 whole entry): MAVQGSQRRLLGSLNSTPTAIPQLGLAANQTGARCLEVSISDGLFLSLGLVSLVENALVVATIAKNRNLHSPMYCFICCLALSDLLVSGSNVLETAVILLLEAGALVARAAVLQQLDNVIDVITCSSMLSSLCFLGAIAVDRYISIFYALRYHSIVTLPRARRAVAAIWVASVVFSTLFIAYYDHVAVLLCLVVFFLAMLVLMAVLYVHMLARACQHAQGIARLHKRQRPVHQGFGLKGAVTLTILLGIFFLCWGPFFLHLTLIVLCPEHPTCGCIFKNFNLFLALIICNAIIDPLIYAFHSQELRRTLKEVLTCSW

[2] = molecular target: T2, human MC4 receptor (human, UniProt P32245 1-332); experiment: cell-based or functional assay
T2 sequence (P32245 whole entry): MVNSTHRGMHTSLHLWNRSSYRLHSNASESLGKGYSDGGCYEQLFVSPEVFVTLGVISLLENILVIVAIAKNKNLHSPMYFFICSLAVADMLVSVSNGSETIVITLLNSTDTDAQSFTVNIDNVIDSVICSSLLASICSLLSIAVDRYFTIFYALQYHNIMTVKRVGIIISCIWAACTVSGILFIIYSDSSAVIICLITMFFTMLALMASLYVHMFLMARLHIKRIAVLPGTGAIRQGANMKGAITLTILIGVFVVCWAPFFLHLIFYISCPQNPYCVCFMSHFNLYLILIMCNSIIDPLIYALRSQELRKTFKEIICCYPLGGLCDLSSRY

[3] = molecular target: T1, human MC1 receptor; experiment: SPA competition binding, displacement of 125I-NDP-α-MSH, BHK membranes with human MC1R
Method: (§1) The SPA Binding assay was performed in 96-well white opaque plates. Each well contained: 0.5 mg PVT-WGA SPA beads, MC1 receptor expressing membrane diluted to give approximately 10% specific tracer binding, 50.000 dpm ¹²⁵I-NDP-α-MSH and relevant dilutions of test compound. The final volume in each well was 200 μl. […] Plates were incubated overnight (22-24 hours) at room temperature before counting for 2 minutes per well, using a TopCount NXT scintillation counter. Displacement of radio ligand is measured as reduction in light emission from SPA beads, and IC₅₀ values are calculated by nonlinear regression analysis of sigmoidal dose-response curves in GraphPad Prism (GraphPad Software, La Jolla, Calif., USA).

[4] = molecular target: T2, human MC4 receptor; experiment: SPA competition binding, displacement of 125I-NDP-α-MSH, BHK membranes with human MC4R
Method: as §1, with “MC4” for “MC1”

| MC1R cAMP EC50 [1] [nM] | MC4R cAMP EC50 [2] [nM] | IC50 [3] [nM] | IC50 [4] [nM] | Binder |
| --- | --- | --- | --- | --- |
| 270 | 0.6 | 128 | 0.68 | B1 |
| 456 | 0.33 | 214 | 0.44 | B2 |
| – | 1.51 | 374 | 1.47 | B3 |
| 801 | 0.24 | 235 | 0.45 | B4 |
| 649 | 2.72 | 816 | 6.31 | B5 |
| 888 | 0.25 | 262 | 0.46 | B6 |
